Data published in the supplement of paper PMC9732359.
± gives the uncertainty stated by the source.

Experiment: protein stability index of a GFP-peptide fusion (yeast GPS) (PSI 1-4); higher = more stable; sorted into four equal gates, so the index is relative within each strain
Summary of the method: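 Tiled yeast protein peptides of 17 residues were each joined downstream of GFP, on plasmids that also express Cherry. The pooled library was maintained in yeast, and mid-log cultures in leucine-free medium were sorted into four equal gates on the GFP/Cherry ratio. Plasmids from every gate were amplified by PCR and sequenced on Illumina, with barcodes linking reads to strains. The protein stability index of a peptide is its gate-number-weighted read frequency summed over the gates.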

NVVIDEAVEIPVNSADG [SME1]
protein stability index (doa10∆): 2.97 ± 0.084 | protein stability index (pdr5∆): 3.35 ± 0.068 | protein stability index (san1∆): 3.24 ± 0.041 | protein stability index (ubr1∆): 2.98 ± 0.045

NVVLVTNDRLNREAATK [DIS3]
protein stability index (doa10∆): 2.33 ± 0.086 | protein stability index (pdr5∆): 2.9 ± 0.088 | protein stability index (san1∆): 1.89 ± 0.21 | protein stability index (ubr1∆): 2.37 ± 0.074

NVVVKWQGKPVFIRHRT [RIP1]
protein stability index (doa10∆): 3.35 ± 0.25 | protein stability index (san1∆): 3.41 ± 0.07 | protein stability index (ubr1∆): 2.88 ± 0.27

NWWHSEFEIPVSFNGFK [BRR2]
protein stability index (doa10∆): 1.49 ± 0.098 | protein stability index (pdr5∆): 1.32 ± 0.068 | protein stability index (san1∆): 1.14 ± 0.17 | protein stability index (ubr1∆): 1.34 ± 0.058

NYESVFTYNKFLLNQNK [YIL149C/MLP2]
protein stability index (doa10∆): 1.47 ± 0.045 | protein stability index (pdr5∆): 1.92 ± 0.049 | protein stability index (san1∆): 2.24 ± 0.1 | protein stability index (ubr1∆): 2.26 ± 0.049

NYGEKEERKRWAMQGIS [PCI8]
protein stability index (doa10∆): 2.92 ± 0.14 | protein stability index (pdr5∆): 2.52 ± 0.24

NYSSLPSPYKTTVYRYS [YAR002W/NUP60]
protein stability index (doa10∆): 2.04 ± 0.045 | protein stability index (pdr5∆): 2.27 ± 0.038 | protein stability index (san1∆): 1.71 ± 0.057 | protein stability index (ubr1∆): 1.91 ± 0.034

PAALDGLMKSYKIPKVM [ESC2]
protein stability index (doa10∆): 2.76 ± 0.068 | protein stability index (pdr5∆): 2.94 ± 0.12 | protein stability index (san1∆): 2.85 ± 0.061 | protein stability index (ubr1∆): 3.45 ± 0.088

PAANESEVANNGLIISW [RRP42]
protein stability index (doa10∆): 1.43 ± 0.15 | protein stability index (pdr5∆): 1.49 ± 0.052 | protein stability index (san1∆): 1.13 ± 0.28 | protein stability index (ubr1∆): 1.4 ± 0.072

PAFSFGTKSNEKKDSGS [YJL041W/NSP1]
protein stability index (doa10∆): 3.17 ± 0.075 | protein stability index (pdr5∆): 3.46 ± 0.075 | protein stability index (san1∆): 3.44 ± 0.044 | protein stability index (ubr1∆): 3.25 ± 0.065

PAGKQVEISLVNGAKNL [FAS1]
protein stability index (doa10∆): 2.63 ± 0.27 | protein stability index (pdr5∆): 3.23 ± 0.23 | protein stability index (ubr1∆): 2.31 ± 0.19

PAGMNETPKSNNSLSYH [ITC1]
protein stability index (doa10∆): 2.08 ± 0.14 | protein stability index (pdr5∆): 3.22 ± 0.12 | protein stability index (san1∆): 2.56 ± 0.14 | protein stability index (ubr1∆): 3 ± 0.092

PAINYTKLKNAVQNESV [QCR2]
protein stability index (doa10∆): 1.9 ± 0.064 | protein stability index (pdr5∆): 1.79 ± 0.059 | protein stability index (san1∆): 2.2 ± 0.092 | protein stability index (ubr1∆): 1.54 ± 0.048

PAPSIPSTGFKFSLPFE [YLR335W/NUP2]
protein stability index (doa10∆): 2.53 ± 0.1 | protein stability index (pdr5∆): 2.94 ± 0.072 | protein stability index (san1∆): 2.92 ± 0.088 | protein stability index (ubr1∆): 3.05 ± 0.086

PAPSKPVIDYELKEITS [BRR2]
protein stability index (doa10∆): 3.15 ± 0.079 | protein stability index (pdr5∆): 3.2 ± 0.081 | protein stability index (san1∆): 2.97 ± 0.068 | protein stability index (ubr1∆): 3.1 ± 0.07

PARSSSLRSNVVVAETS [YAR002W/NUP60]
protein stability index (doa10∆): 2.2 ± 0.04 | protein stability index (pdr5∆): 2.62 ± 0.04 | protein stability index (san1∆): 2.19 ± 0.058 | protein stability index (ubr1∆): 2.58 ± 0.035

PAWFNNPRKRAIPNSII [YMR153W/NUP53]
protein stability index (doa10∆): 2.62 ± 0.084 | protein stability index (pdr5∆): 2.94 ± 0.083 | protein stability index (san1∆): 3.21 ± 0.079 | protein stability index (ubr1∆): 3.25 ± 0.084

PCNNRGKHSIGLIWYLL [RPS0A]
protein stability index (doa10∆): 2.56 ± 0.058 | protein stability index (pdr5∆): 2.37 ± 0.054 | protein stability index (san1∆): 2.49 ± 0.058 | protein stability index (ubr1∆): 2.37 ± 0.044

PDMMVDSFTMPNISHSN [SNF2]
protein stability index (doa10∆): 3.28 ± 0.11 | protein stability index (pdr5∆): 2.84 ± 0.098 | protein stability index (san1∆): 2.72 ± 0.087 | protein stability index (ubr1∆): 3.18 ± 0.093

PDSCNMQEKAAHIAKNL [YCS4]
protein stability index (doa10∆): 2.15 ± 0.15 | protein stability index (pdr5∆): 1.55 ± 0.2 | protein stability index (ubr1∆): 1.47 ± 0.093

PDTAIDSQMDEASGTPD [GRR1]
protein stability index (doa10∆): 2.97 ± 0.062 | protein stability index (pdr5∆): 3.06 ± 0.071 | protein stability index (san1∆): 2.89 ± 0.064 | protein stability index (ubr1∆): 3 ± 0.055

PDTKISSAAILGLGIAF [RPN1]
protein stability index (doa10∆): 2.28 ± 0.043 | protein stability index (pdr5∆): 2.3 ± 0.058 | protein stability index (san1∆): 2.49 ± 0.087 | protein stability index (ubr1∆): 2.06 ± 0.051

PELLDSLAILGMNLLSN [SWI1]
protein stability index (doa10∆): 2.1 ± 0.061 | protein stability index (pdr5∆): 2.21 ± 0.073 | protein stability index (san1∆): 2.05 ± 0.079 | protein stability index (ubr1∆): 1.92 ± 0.066

PENLQVTSEKYPFDKLE [BRR2]
protein stability index (doa10∆): 2.86 ± 0.085 | protein stability index (pdr5∆): 3.07 ± 0.093 | protein stability index (san1∆): 2.93 ± 0.064 | protein stability index (ubr1∆): 3.19 ± 0.035

PEVVELCQKSPVMADLN [FAS2]
protein stability index (doa10∆): 2.63 ± 0.074 | protein stability index (pdr5∆): 2.69 ± 0.078 | protein stability index (san1∆): 2.48 ± 0.11 | protein stability index (ubr1∆): 2.73 ± 0.085

PFDKKSNSALFRAVGEG [FAS1]
protein stability index (doa10∆): 2.92 ± 0.074 | protein stability index (pdr5∆): 2.92 ± 0.082 | protein stability index (san1∆): 2.85 ± 0.052 | protein stability index (ubr1∆): 2.91 ± 0.063

PFDMGGYFIINGSEKVL [RPB2]
protein stability index (doa10∆): 2.83 ± 0.14 | protein stability index (pdr5∆): 2.28 ± 0.14 | protein stability index (san1∆): 2.56 ± 0.27 | protein stability index (ubr1∆): 2.33 ± 0.16

PFMSYSPQLTAIIGLKS [SNF12]
protein stability index (doa10∆): 1.67 ± 0.055 | protein stability index (pdr5∆): 2.16 ± 0.062 | protein stability index (san1∆): 2.3 ± 0.078 | protein stability index (ubr1∆): 1.98 ± 0.053

PFNFTVTLFQMAILLLY [CDC53]
protein stability index (doa10∆): 1.65 ± 0.045 | protein stability index (pdr5∆): 1.59 ± 0.045 | protein stability index (san1∆): 1.41 ± 0.11 | protein stability index (ubr1∆): 1.63 ± 0.039

PFPQYPAGMNETPKSNN [ITC1]
protein stability index (doa10∆): 2.7 ± 0.1 | protein stability index (pdr5∆): 2.8 ± 0.14 | protein stability index (san1∆): 2.75 ± 0.087 | protein stability index (ubr1∆): 3.01 ± 0.089

PGGASGLGVLTHRNKDG [FAS1]
protein stability index (doa10∆): 3.35 ± 0.067 | protein stability index (pdr5∆): 2.74 ± 0.081 | protein stability index (san1∆): 3.24 ± 0.076 | protein stability index (ubr1∆): 3.44 ± 0.069

PGGYFIVNGTEKVILVQ [RET1]
protein stability index (doa10∆): 1.63 ± 0.12 | protein stability index (pdr5∆): 1.67 ± 0.1 | protein stability index (san1∆): 1.28 ± 0.13 | protein stability index (ubr1∆): 2.48 ± 0.13

PGIISITSLQDSSSQCI [YMR129W/POM152]
protein stability index (doa10∆): 2.86 ± 0.076 | protein stability index (pdr5∆): 3.04 ± 0.074 | protein stability index (san1∆): 3 ± 0.066 | protein stability index (ubr1∆): 3.14 ± 0.085

PGLEFLDDTTIPVGLMA [MCD1]
protein stability index (doa10∆): 1.99 ± 0.057 | protein stability index (pdr5∆): 2.71 ± 0.059 | protein stability index (san1∆): 3.03 ± 0.041 | protein stability index (ubr1∆): 2.52 ± 0.055

PGRIDRKILFENPDLST [RPT2]
protein stability index (pdr5∆): 3.52 ± 0.28 | protein stability index (san1∆): 3.35 ± 0.14 | protein stability index (ubr1∆): 3.37 ± 0.056

PGTGKTLLARAVAHHTD [RPT6]
protein stability index (doa10∆): 1.78 ± 0.05 | protein stability index (pdr5∆): 2.76 ± 0.06 | protein stability index (san1∆): 1.53 ± 0.11 | protein stability index (ubr1∆): 1.49 ± 0.057

PGVNREINSEMCHIVRK [GRR1]
protein stability index (doa10∆): 3.01 ± 0.096 | protein stability index (pdr5∆): 3.05 ± 0.082 | protein stability index (san1∆): 3.35 ± 0.059 | protein stability index (ubr1∆): 3.12 ± 0.052

PGWDFETEEIDPELLRS [RPL5]
protein stability index (doa10∆): 3.34 ± 0.13 | protein stability index (pdr5∆): 3.19 ± 0.081 | protein stability index (san1∆): 3.11 ± 0.057 | protein stability index (ubr1∆): 2.77 ± 0.17

PIEVDEELLQLFLNNFV [IRR1]
protein stability index (doa10∆): 2.93 ± 0.063 | protein stability index (pdr5∆): 2.86 ± 0.071 | protein stability index (san1∆): 2.97 ± 0.054 | protein stability index (ubr1∆): 3.18 ± 0.058

PIKEAKIKHGSVTEIPL [YMR129W/POM152]
protein stability index (doa10∆): 2.9 ± 0.046 | protein stability index (pdr5∆): 3 ± 0.046 | protein stability index (san1∆): 2.6 ± 0.06 | protein stability index (ubr1∆): 2.99 ± 0.05

PIMLRSKNCYLSEATES [RPB2]
protein stability index (doa10∆): 1.23 ± 0.075 | protein stability index (pdr5∆): 1.46 ± 0.11 | protein stability index (san1∆): 1.1 ± 0.15 | protein stability index (ubr1∆): 1.14 ± 0.061

PINGNEAESQWYIEKVI [CSI1]
protein stability index (doa10∆): 2.47 ± 0.081 | protein stability index (pdr5∆): 2.88 ± 0.078 | protein stability index (san1∆): 3.09 ± 0.1 | protein stability index (ubr1∆): 2.93 ± 0.18

PINLHPSKLVITKLHLD [RPL26A]
protein stability index (doa10∆): 1.74 ± 0.058 | protein stability index (pdr5∆): 2.2 ± 0.045 | protein stability index (san1∆): 1.9 ± 0.062 | protein stability index (ubr1∆): 1.85 ± 0.042

PIQSKVFHAAFEGDSNM [BRR2]
protein stability index (doa10∆): 2.91 ± 0.055 | protein stability index (pdr5∆): 3.02 ± 0.051 | protein stability index (san1∆): 2.92 ± 0.063 | protein stability index (ubr1∆): 2.9 ± 0.032

PITASMAAALPNPTPSM [PGD1]
protein stability index (doa10∆): 2.47 ± 0.083 | protein stability index (pdr5∆): 2.54 ± 0.066 | protein stability index (san1∆): 2.55 ± 0.073 | protein stability index (ubr1∆): 2.51 ± 0.067

PITNKERSLAVKYINFG [RPC31]
protein stability index (doa10∆): 3.02 ± 0.14 | protein stability index (pdr5∆): 3.11 ± 0.16 | protein stability index (san1∆): 2.65 ± 0.084 | protein stability index (ubr1∆): 2.48 ± 0.18

PIVEDRRVKQLDDITDS [SIR4]
protein stability index (pdr5∆): 1.49 ± 0.19 | protein stability index (san1∆): 1.31 ± 0.21 | protein stability index (ubr1∆): 1.64 ± 0.12

PIVLLNTLRKCYPQFAE [UBP6]
protein stability index (doa10∆): 1.25 ± 0.11 | protein stability index (pdr5∆): 1.26 ± 0.073 | protein stability index (san1∆): 1.14 ± 0.16 | protein stability index (ubr1∆): 1.19 ± 0.12

PIYYQKLKHMVLDKMHA [RET1]
protein stability index (doa10∆): 1.58 ± 0.076 | protein stability index (pdr5∆): 2.03 ± 0.088 | protein stability index (san1∆): 1.62 ± 0.094 | protein stability index (ubr1∆): 1.77 ± 0.063

PKATSSAGAVFKSSVEM [YOR098C/NUP1]
protein stability index (doa10∆): 2.89 ± 0.12 | protein stability index (pdr5∆): 1.86 ± 0.11 | protein stability index (san1∆): 2.69 ± 0.1 | protein stability index (ubr1∆): 2.45 ± 0.047

PKDSSSTFREWKNLVLK [YJR042W/NUP85]
protein stability index (doa10∆): 3.29 ± 0.11 | protein stability index (pdr5∆): 2.76 ± 0.12 | protein stability index (san1∆): 3 ± 0.065 | protein stability index (ubr1∆): 3.16 ± 0.088

PKEEEPILAPSVKDYRP [RPS3]
protein stability index (doa10∆): 2.8 ± 0.059 | protein stability index (pdr5∆): 2.86 ± 0.079 | protein stability index (san1∆): 3.04 ± 0.052 | protein stability index (ubr1∆): 2.65 ± 0.054
